± gives the half width of the 95% confidence interval.
Columns and labels:
[1] = folding stability dG unfold (combined trypsin and chymotrypsin); higher = more stable
Outline: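 Unfolding free energy was derived, per protease or combined, against a sequence-predicted unfolded-state K50 and a shared folded-state K50, starting from K50 inferred by Bayesian fitting of sequencing counts. Digestion with trypsin and chymotrypsin was carried out on designed mini-proteins under 80 residues without cysteine in a PA-tagged cDNA display construct. Only designs with AlphaFold2 dimer inter-PAE above 15 were kept.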

[2] = folding stability dG unfold from chymotrypsin proteolysis; higher = more stable
Protocol: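 Folding stability of de novo designed mini-proteins (<80 aa, no Cys; designed by TrROS, TrMRF, ProteinMPNN and the joint model) was measured by cDNA display proteolysis with trypsin and chymotrypsin. Each protease was used at 11 concentrations in a threefold dilution series plus a no-protease condition. K50 was inferred by Bayesian fitting of sequencing counts, and dG unfold was derived against a sequence-predicted unfolded-state K50 (Tsuboyama et al. method). Sequences shown include variable-length N-terminal GS-type padding (SAGGSAGG...) inside a display construct carrying a PA tag. Rows were kept only if the AF2 dimer inter-PAE was >15, to exclude likely homo-oligomers.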

| Sequence | folding stability dG unfold [1] [kcal/mol] | folding stability dG unfold [2] [kcal/mol] |
| --- | --- | --- |
| SAGGSAGGMKITITFPDGTKKEIEVESEEELLEAIKKLAEELGLEKEVTVTVEYNGKTYTITLKSAGGSAGG [r6_531_TrROS_Hall] | 5.06 ± 0.32 | 5.13 ± 0.25 |
| SAGGSAGGSAGGPVLIRAVFTPPNGPVLELVVPSPEEVVELAKPFDVEVHIEPISPDDPFSAGGSAGGSAGG [r7_456_TrMRF] | < -1 | -1.12 ± 0.45 |
| SAGGSANAEEIADWLQDRGFKEVEIEKDPENGNVTVEIRNPGGYEWELTINPKNPKITEIEPRPKKSAGGSA [r15_648_TrROS] | -0.523 ± 0.42 | 0.0797 ± 0.097 |
| SAGGSAGGSAGSMPVTVTERVVTSETPLPTDELAVKTTVTYPDGTAADFTRLLPPDAPLESAGGSAGGSAGG [r11_429_JUSTAS] | 0.158 ± 0.18 | 0.875 ± 0.042 |
| SAGGSAGGSAGGNVPIPFLPEGFDVEVKKIEVPTPGKVKLVLVPKNSDEEFELEFSPEELSAGGSAGGSAGG [r7_342_TrMRF] | < -1 | -0.633 ± 0.2 |
| SMDVVTEVTVKLPYRDASHHHHLNIKVTRTISSKDPSLSPEALPPEVLAEEAKKEAIEELKKKGIPEEFLSA [r9_516_JUSTAS] | < -1 | -0.346 ± 0.64 |
| SAGGSAGGSGMVTVKRTVPPGNVEEAVNALTPPNLTITDVKVTELPDSVEVTVTVEDPFPGLVSAGGSAGGS [r12_445_JUSTAS] | 0.0193 ± 0.12 | 0.587 ± 0.034 |
| SAGGSAGGSAGGSMKTEEVVYVKTPDAWVRLKKEEAEKLEKETGVKIERESFTLPAGALESAGGSAGGSAGG [r7_185_JUSTAS] | 0.405 ± 0.24 | 0.89 ± 0.17 |
| SAGGSALTIKVKDPEDIKDLEIQVYLPDGRPMLMKIEVQRDEGPPYVKIKAENPGNGKKRKETFPFSAGGSA [r15_1006_TrROS] | -0.243 ± 0.62 | 0.0249 ± 0.53 |
| SAGGSAGGSAGGMTLTVKDPASDEWTTVDLSPEQLPEVRAAVPEGPVTFELEASDSVIELSAGGSAGGSAGG [r7_188_JUSTAS] | 0.409 ± 0.059 | 0.94 ± 0.061 |
| SAGGMNSMRLTVEFPSPEQREEKLRQIVHKHGFTIKPKEVEPNPNGRMTHTIEINMPPKVRDAFKDLSAGGS [r8_357_TrROS] | -0.659 ± 0.14 | -0.152 ± 0.19 |
| SAGGSPPYVNISMRRTPNGNMPLKVEIYDKDNEPVAEQEIEIPDMEPGEQWNFTIPIEPNMKLRIESAGGSA [r2_288_TrROS] | -0.132 ± 0.12 | 0.456 ± 0.13 |
| SAGGSAGGSAGGLIPPNQKIKIKEIEPPNNEMNIDLEYPDNGKKVEFPFDSPEQALDALSAGGSAGGSAGGS [r10_1038_TrROS] | 0.227 ± 0.14 | 0.658 ± 0.049 |
| SAGGSAGGSAGGYDPNDKPVVEVPIELPPNDKKNPDRMKENAEEIANPLQEKGKPDRIVSAGGSAGGSAGGS [r10_723_TrROS] | 0.475 ± 0.24 | 0.907 ± 0.11 |
| SAGGSVLVTLTNPADGTPVTLPTPAEEAEAILASGDTAALEARHPGRPVAAVTVDPVSPRPPVPPGLASAGG [r13_629_JUSTAS] | -0.651 ± 0.38 | 0.223 ± 0.095 |
| SAGGSAGGSAGGEPDPKFHVEYDEEEGRYKVKIYNPNNNKKEEIEVPVPPGQPKEEAIKSAGGSAGGSAGGS [r10_676_TrROS] | -0.269 ± 0.27 | 0.0247 ± 0.11 |
| SSPVVVSESTDPNSSTKTITVTLPPNARVTLTLPGEPVETRPQPDATATLTTGPDALDITIEPLPPGVPLSA [r9_221_JUSTAS] | -0.714 ± 0.24 | 0.474 ± 0.1 |
| SAGGSAGGSAEVTFKKVSFSPPENTVYVSEVKAKLYVGEDDSLKFKVEPVKVEKVSPADLLAKSAGGSAGGS [r12_374_TrMRF] | -0.439 ± 0.16 | 0.0476 ± 0.16 |
| SAGGSAGGGPYKTSYAIVDGSVVASTEGDPETGVVTSTFTFDGSDVEYTTPATPGEAVTRTVSLSAGGSAGG [r6_972_JUSTAS] | 0.346 ± 0.047 | 0.797 ± 0.059 |

| Sequence | folding stability dG unfold [1] [kcal/mol] | folding stability dG unfold [2] [kcal/mol] |
| --- | --- | --- |
| SAGMKTLTGPPEVLEELVEKALKENPNAKTVTIVDGDKSVTVPKDEEVEFLEPAPQPDGEPYVTIEILESAG [r5_130_JUSTAS] | 0.101 ± 0.13 | 0.669 ± 0.048 |
| SAGGSAGGSAMRAVVVAFPPDGPPRVFPTDDLAPDERRVTFDPETGELALIEVLPEDGDPASAGGSAGGSAG [r3_356_TrMRF] | < -1 | 0.0788 ± 0.23 |
| SAGGAPLAERTEPLPDGRTVRRVLEYDPEKRTVRVRTERWAPDGAAEPAEEVLDVPESATSPEFLLASAGGS [r8_461_JUSTAS] | < -1 | -0.606 ± 0.21 |
| SAGGSAGGSAGGGERRRVLHINPEDGYIQRMEFDPDDGEPTGSETVPFKSPEDALDKLIDSAGGSAGGSAGG [r7_105_TrROS] | -0.152 ± 0.2 | 0.342 ± 0.14 |
| SAGGSAGGSAGGNDPNGQEKEIPIDPGQRADEIAEEFKDEFNPDHVEIEASEEGYAEVRVSAGGSAGGSAGG [r7_273_TrROS] | 0.348 ± 0.079 | 0.887 ± 0.044 |
| SAGGSAGGSAGGSAVTSDGTEVEPDQLVEEATLTPPDGEPVRLRVYAVPDSDEVVTEAGSAGGSAGGSAGGS [r4_13_TrMRF] | < -1 | 0.691 ± 0.26 |
| SAGGSAGGSAGGMKIRVTHPTNKTEEIIPVSELKKIPGPYTIEPLGPDPELAEKIKKLLSAGGSAGGSAGGS [r10_419_JUSTAS] | 0.142 ± 0.25 | 0.553 ± 0.22 |
| PPVGPDAPVTPTTTPTPSGKTVTTTDRPLRREVTTTDPSTGTYTVTLTETDAAGRVLATRTETLSPEEVAAS [r1_380_JUSTAS] | -0.541 ± 0.31 | -0.0788 ± 0.36 |
| SAPPATLTVDSVEFHPETGTLTIPFSHPAGPTASVLFRNEDGEVLEIPGTVPTATIRAEPNMRLERVFLGSA [r9_113_TrMRF] | -0.0386 ± 0.081 | 0.499 ± 0.1 |
| SAGGSAGGSAGGTVKELMKKLPFGAQIEIDEIEHDKGRIEIPIRVENMPPEWREKLRKLSAGGSAGGSAGGS [r10_733_TrROS] | -0.305 ± 0.23 | 0.0365 ± 0.15 |
| SAGGGVTLTVDVRSKSGGSPEKFTLTLPVAVDPAGSADLDAARAAVAAALPPEAEVLELSLLPPDVPASAGG [r13_504_JUSTAS] | < -1 | 0.346 ± 0.17 |
| SAGGSAGGSIPPGEEVPLRIKIWNPDNGKPRNEIPITMWVGDAEEIAEEFASTFPGYRVEIDPSAGGSAGGS [r12_21_TrROS] | 0.102 ± 0.33 | 0.717 ± 0.23 |
| SAGGSAGGITLVVEGMPAEQMEEMKQKIREFAEDYNVEVNIDQERNPDGRMRATVEIEPPPGDPSAGGSAGG [r6_907_TrROS] | -0.767 ± 0.28 | -0.472 ± 0.15 |
| SAGGSAGGSAGGPMRLVRIPLDDGKIKVVPIPPGEAIPFENDNGEIYFMVTDDKIEIMPSAGGSAGGSAGGS [r10_817_TrROS] | 0.0436 ± 0.15 | 0.181 ± 0.44 |
| SAMTPDELADELAKKFHQQNQENGYEIPDVDIKYDPEEDRVTVEFEMRNKNTGRPMRPTFQIDDPEDILSAG [r14_409_TrROS] | < -1 | -0.247 ± 0.33 |
| SAGGTTTRTTVYFDDGKVYELTDPEEVEKTIKEKLGKNYKIVSEEEYTEPSPDGPPLPARRLKLKKKSAGGS [r16_408_JUSTAS] | < -1 | -0.795 ± 0.33 |
| SAGGSAGGSAARAYTDVDPVPSTLPNGERVVRVTEAGTGTTSDVPLEALADLDRGAGVTVPPSAGGSAGGSA [r18_288_JUSTAS] | -0.249 ± 0.069 | 0.538 ± 0.059 |
| SAGGMTIPLEFEFESEEEAKEKAEEIAEELAKSFPEYEVEVKIEIKPVKDPNSDTTKWRVKMEITVGPSAGG [r13_545_JUSTAS] | 4.56 ± 0.31 | 4.38 ± 0.2 |
